Experimental findings from the supplement of paper PMC7877785 are described below.

± gives the uncertainty stated by the source.

A short description of the data set: self-splicing fitness, log relative to wild type (ln ratio); higher = more splicing; Tetrahymena group I intron in knt gene, E. coli kanamycin selection, DiMSum; sequences stand for … in CUCUCU…GGAGGGAAAAGUUAUCAGGCAUGCACCUGGUAGCUAGUCUUUAAACCAAUAGAUUGCAUCGGUUUAAAAGGCAAGACCGUCAAAUUGCGGGAAAGGGGUCAACAGCCGUUCAGUACCAAGUCUCAGGGGAAACUUUGAGAUGGCCUUGCAAAGGGUAUGGUAAUAAGCUGACGGACAUGGUCCUAACCACGCAGCCAAGUCCUAAGUCAACAGAUCUUCUGUUGAUAUGGAUGCAGUUCACAGACUAAAUGUCGGUCGGGGAAGAUGUAUUCUUCUCAUAAGAUAUAGUCGGACCUCUCCUUAAUGGGAGCUAGCGGAUGAAGUGAUGCAACACUGGAGCCGCUGGGAACUAAUUUGUAUGCGAAAGUAUAUUGAUUAGUUUUGGAGUACUCGUGGUCG
The essentials:
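Pooled colonies went to amplicon sequencing on an Illumina HiSeq 2500 after six replicate transformations. The plates were LB agar with 100 μg/mL carbenicillin, 50 μM IPTG and 0.2% rhamnose, with or without 25 μg/mL kanamycin, incubated overnight at 37°C or 30°C. The E. coli BL21(DE3) library had all eight P1ex-region intron nucleotides randomised, the intron placed in the knt kanamycin-resistance gene on pET-22b(+). DiMSum fitness is the error-weighted combination of replicate fold changes, kanamycin against none, normalised to wild type.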

As for GUUGAGCAAUAUUACGCCUC, the “self-splicing fitness (ln)” value (30 °C) is -2.09 ± 0.39. On to AUGUAGCAAUAUUACGGUGU, for which the “self-splicing fitness (ln)” value (30 °C) was -3.04 ± 0.16 and the “self-splicing fitness (ln)” value (37 °C) was -0.843 ± 0.1.

Take CAUAAGCAAUAUUACGUUUU: the “self-splicing fitness (ln)” value is, setting by setting: (30 °C) -4.55 ± 0.22; (37 °C) -2.54 ± 0.15. In the same order, the values of AUCCAGCAAUAUUACGGCCA are -0.362 ± 0.071 and -0.298 ± 0.084. Consider CUUUAGCAAUAUUACGGGGU, for which the “self-splicing fitness (ln)” value is -3.02 ± 0.24 (30 °C) and -2.94 ± 0.27 (37 °C). With CAUCAGCAAUAUUACGCUCC, the “self-splicing fitness (ln)” value by setting is: (30 °C) -2.75 ± 0.24; (37 °C) -2.3 ± 0.28. As to CAUGAGCAAUAUUACGGAUA, the “self-splicing fitness (ln)” value is -3.32 ± 0.22 (30 °C) and -1.68 ± 0.24 (37 °C). In the case of GGAUAGCAAUAUUACGCGGU, the “self-splicing fitness (ln)” value runs as follows: (30 °C) -2.47 ± 0.33; (37 °C) -2.6 ± 0.38. For CAGAAGCAAUAUUACGGAUC, the “self-splicing fitness (ln)” value runs as follows: (30 °C) -1.26 ± 0.11; (37 °C) -2.62 ± 0.17.

CAACAGCAAUAUUACGACGU: the “self-splicing fitness (ln)” value reads like this: (30 °C) -0.776 ± 0.042; (37 °C) -0.12 ± 0.054.

Take GUUCAGCAAUAUUACGUCAU: the “self-splicing fitness (ln)” value reads like this: (30 °C) -0.56 ± 0.083; (37 °C) -0.0298 ± 0.09.

For the sequence CAUGAGCAAUAUUACGUAAU, the “self-splicing fitness (ln)” value (30 °C) was -3.04 ± 0.29 and the “self-splicing fitness (ln)” value (37 °C) was -2.73 ± 0.3.

On to AGUAAGCAAUAUUACGCGAC, for which the “self-splicing fitness (ln)” value reads like this: (30 °C) -3.46 ± 0.23; (37 °C) -2.63 ± 0.25.

Regarding CUAUAGCAAUAUUACGCAGU, the “self-splicing fitness (ln)” value (30 °C) is -3.51 ± 0.2 and the “self-splicing fitness (ln)” value (37 °C) was -2.55 ± 0.27. For UGGCAGCAAUAUUACGGGAC, the “self-splicing fitness (ln)” value is -2.88 ± 0.45 (30 °C) and -2.37 ± 0.49 (37 °C). As to CCGAAGCAAUAUUACGAAGU, the “self-splicing fitness (ln)” value (30 °C) was -3.15 ± 0.19 and the “self-splicing fitness (ln)” value (37 °C) was -2.8 ± 0.29. As to CUGAAGCAAUAUUACGGACA, the “self-splicing fitness (ln)” value reads like this: (30 °C) -1.79 ± 0.14; (37 °C) -2.22 ± 0.27.

As for AUGUAGCAAUAUUACGUCCC, the “self-splicing fitness (ln)” value is, setting by setting: (30 °C) -1.73 ± 0.17; (37 °C) -1.02 ± 0.27. Taken in the same sequence, the figures for AGUCAGCAAUAUUACGCGCC were -0.491 ± 0.1 and -0.228 ± 0.11. Consider AAUCAGCAAUAUUACGUAUU, for which the “self-splicing fitness (ln)” value is -1.17 ± 0.053 (30 °C) and -0.697 ± 0.061 (37 °C). Take AGCUAGCAAUAUUACGAUUC: the “self-splicing fitness (ln)” value (30 °C) is -1.8 ± 0.11 and the “self-splicing fitness (ln)” value (37 °C) was -0.417 ± 0.15. Turning to AUAAAGCAAUAUUACGCUGC, the “self-splicing fitness (ln)” value by setting is: (30 °C) -3.15 ± 0.23; (37 °C) -2.59 ± 0.33. On to AAAUAGCAAUAUUACGUCAC, for which the “self-splicing fitness (ln)” value (30 °C) was -4.4 ± 0.42 and the “self-splicing fitness (ln)” value (37 °C) was -2.53 ± 0.28. Take GCGUAGCAAUAUUACGCUGA: the “self-splicing fitness (ln)” value (37 °C) was -3.19 ± 0.3. Regarding GUUCAGCAAUAUUACGCCCG, the “self-splicing fitness (ln)” value (30 °C) is -1.59 ± 0.22 and the “self-splicing fitness (ln)” value (37 °C) is -0.196 ± 0.28. GAAAAGCAAUAUUACGGUCC: the “self-splicing fitness (ln)” value was -1.8 ± 0.23 (30 °C) and -0.588 ± 0.17 (37 °C). Taken in the same sequence, the figures for CUGGAGCAAUAUUACGGCAG were -2.77 ± 0.15 and -1.94 ± 0.16. Take GGAGAGCAAUAUUACGGGCC: the “self-splicing fitness (ln)” value (30 °C) is -2.35 ± 0.33. With CAUCAGCAAUAUUACGCACU, the “self-splicing fitness (ln)” value by setting is: (30 °C) -1.99 ± 0.092; (37 °C) -1.17 ± 0.098. Taken in the same sequence, the figures for GAGAAGCAAUAUUACGUGCC were -0.556 ± 0.11 and -0.064 ± 0.11. Taken in the same sequence, the figures for ACAUAGCAAUAUUACGGUUU were -2.13 ± 0.057 and -0.763 ± 0.071.

With UUGGAGCAAUAUUACGUAGU, the “self-splicing fitness (ln)” value by setting is: (30 °C) -1.95 ± 0.25; (37 °C) -2.6 ± 0.49. In the same order, the values of CGGUAGCAAUAUUACGUCUC are -2.46 ± 0.12 and -1.86 ± 0.13. For AUGAAGCAAUAUUACGGGGA, the “self-splicing fitness (ln)” value was -2.4 ± 0.15 (30 °C) and -1.31 ± 0.17 (37 °C). As for GAUUAGCAAUAUUACGAUCG, the “self-splicing fitness (ln)” value reads like this: (30 °C) -1.06 ± 0.11; (37 °C) -0.387 ± 0.12. As to AUCUAGCAAUAUUACGUCAA, the “self-splicing fitness (ln)” value is, setting by setting: (30 °C) -2.6 ± 0.29; (37 °C) -1.68 ± 0.21.

UUUAAGCAAUAUUACGCAGA: the “self-splicing fitness (ln)” value (30 °C) is -1.64 ± 0.16 and the “self-splicing fitness (ln)” value (37 °C) was -1.93 ± 0.14. On to UUGAAGCAAUAUUACGAUUG, for which the “self-splicing fitness (ln)” value by setting is: (30 °C) -1.35 ± 0.088; (37 °C) 0.272 ± 0.11. With AUCAAGCAAUAUUACGGGCG, the “self-splicing fitness (ln)” value (30 °C) was -1.34 ± 0.06 and the “self-splicing fitness (ln)” value (37 °C) was -0.467 ± 0.079. As for CCUUAGCAAUAUUACGAAUU, where the note is “37 °C”, the “self-splicing fitness (ln)” value is -2.29 ± 0.49. As for GGAUAGCAAUAUUACGAUGU, the “self-splicing fitness (ln)” value (30 °C) was -0.882 ± 0.084 and the “self-splicing fitness (ln)” value (37 °C) is -0.0369 ± 0.11.

In the case of UUCGAGCAAUAUUACGUAAG, the “self-splicing fitness (ln)” value is -3.03 ± 0.36 (30 °C) and -3.24 ± 0.42 (37 °C).

With GAAAAGCAAUAUUACGCAUG, the “self-splicing fitness (ln)” value was -1.12 ± 0.079 (30 °C) and -0.337 ± 0.1 (37 °C).

For the sequence CGAGAGCAAUAUUACGGCUC, the “self-splicing fitness (ln)” value (30 °C) was -1.09 ± 0.21. Turning to UUGUAGCAAUAUUACGUGUG, the “self-splicing fitness (ln)” value is, setting by setting: (30 °C) -1.28 ± 0.17; (37 °C) -1.17 ± 0.11. For the sequence AGUUAGCAAUAUUACGAAAU, the “self-splicing fitness (ln)” value is, setting by setting: (30 °C) -2.58 ± 0.13; (37 °C) -1.62 ± 0.13.

On to CUAGAGCAAUAUUACGCUGG, for which the “self-splicing fitness (ln)” value (37 °C) is -2.1 ± 0.33. Consider GCCGAGCAAUAUUACGAAGG, for which the “self-splicing fitness (ln)” value is -3.25 ± 0.24 (30 °C) and -2.12 ± 0.49 (37 °C).

Turning to GACUAGCAAUAUUACGGACC, the “self-splicing fitness (ln)” value (30 °C) was -1.77 ± 0.38 and the “self-splicing fitness (ln)” value (37 °C) was -0.714 ± 0.39. With UACAAGCAAUAUUACGAUAA, the “self-splicing fitness (ln)” value runs as follows: (30 °C) -1.93 ± 0.13; (37 °C) -0.276 ± 0.12. For CAACAGCAAUAUUACGGCUC, the “self-splicing fitness (ln)” value was -1.38 ± 0.078 (30 °C) and -0.333 ± 0.098 (37 °C).

For the sequence AGUUAGCAAUAUUACGACAU, the “self-splicing fitness (ln)” value (30 °C) was 0.112 ± 0.013 and the “self-splicing fitness (ln)” value (37 °C) was 0.071 ± 0.033. Turning to UGGGAGCAAUAUUACGCAUA, the “self-splicing fitness (ln)” value (30 °C) is -1.98 ± 0.27 and the “self-splicing fitness (ln)” value (37 °C) was -1.22 ± 0.22. For the sequence GUACAGCAAUAUUACGAUGC, the “self-splicing fitness (ln)” value (30 °C) is -1.03 ± 0.12 and the “self-splicing fitness (ln)” value (37 °C) is -1.06 ± 0.12. Taken in the same sequence, the figures for AGGCAGCAAUAUUACGGUGG were -3.05 ± 0.16 and -2.88 ± 0.23. With GUGGAGCAAUAUUACGCGGA, the “self-splicing fitness (ln)” value (37 °C) is -1.85 ± 0.24.

Take CCCCAGCAAUAUUACGCUUC: the “self-splicing fitness (ln)” value was -4.6 ± 0.32 (30 °C) and -2.39 ± 0.27 (37 °C). Turning to AAUGAGCAAUAUUACGACUU, the “self-splicing fitness (ln)” value is -0.422 ± 0.091 (30 °C) and 0.263 ± 0.1 (37 °C). Consider CCGUAGCAAUAUUACGUCCU, for which the “self-splicing fitness (ln)” value runs as follows: (30 °C) -3 ± 0.24; (37 °C) -2.62 ± 0.3.

For GGGCAGCAAUAUUACGAGGU, the “self-splicing fitness (ln)” value by setting is: (30 °C) -4.65 ± 0.38; (37 °C) -2.77 ± 0.24. With CAUUAGCAAUAUUACGAUGA, the “self-splicing fitness (ln)” value by setting is: (30 °C) -2.12 ± 0.2; (37 °C) -1.09 ± 0.15.

With GAACAGCAAUAUUACGAGUC, the “self-splicing fitness (ln)” value (30 °C) is -2.08 ± 0.09 and the “self-splicing fitness (ln)” value (37 °C) is -1.45 ± 0.094.
